The RNAGym collection of RNA variant scans (doi:10.1021/acssynbio.7b00057)

B1: Pistol ribozyme (parent)
chain: GGGUCGUUGUUCCAUAAUCGCGUGGAUAUGGCACGCAAGUUUCUACCGGGCACCGUAAAUGUCCGACUGGAGCCGUUCGGGCGGCUAUAAACAGACCUCAGGCCCGAAGCGUGGCGGCACCUGCCGCCGGUGGUAAAAAAGAUCGGAAGAGCACACGUCU

Variants of: B1
Assay: aptazyme ON/OFF ratio, guanine; higher = stronger switching; co-transcriptional cleavage with and without guanine

Variant	aptazyme ON/OFF ratio
GGGUCGAAAGUAUAUAAUCGCGUGGAUAUGGCACGCAAGUUUCUACCGGGCACCGUAAAUGUCCGACUGGAGCCGUUCGGGCGGCUAUAAACAGACCUCAGGCCCGAAGCGUGGCGGCACCUGCCGCCGGUGGUAAAAAAGAUCGGAAGAGCACACGUCU [U7A U8A G9A U10G C12A C13U]	1.2
GGGUCGAAAGUAGAUAAUCGCGUGGAUAUGGCACGCAAGUUUCUACCGGGCACCGUAAAUGUCCGACUGGAGCCGUUCGGGCGGCUAUAAACAGACCUCAGGCCCGAAGCGUGGCGGCACCUGCCGCCGGUGGUAAAAAAGAUCGGAAGAGCACACGUCU [U7A U8A G9A U10G C12A C13G]	1.12
GGGUCGAAAGUAAAUAAUCGCGUGGAUAUGGCACGCAAGUUUCUACCGGGCACCGUAAAUGUCCGACUGGAGCCGUUCGGGCGGCUAUAAACAGACCUCAGGCCCGAAGCGUGGCGGCACCUGCCGCCGGUGGUAAAAAAGAUCGGAAGAGCACACGUCU [U7A U8A G9A U10G C12A C13A]	1.21
GGGUCGAAAGAAGAUAAUCGCGUGGAUAUGGCACGCAAGUUUCUACCGGGCACCGUAAAUGUCCGACUGGAGCCGUUCGGGCGGCUAUAAACAGACCUCAGGCCCGAAGCGUGGCGGCACCUGCCGCCGGUGGUAAAAAAGAUCGGAAGAGCACACGUCU [U7A U8A G9A U10G U11A C12A C13G]	1.18
GGGUCGAAAGAAAAUAAUCGCGUGGAUAUGGCACGCAAGUUUCUACCGGGCACCGUAAAUGUCCGACUGGAGCCGUUCGGGCGGCUAUAAACAGACCUCAGGCCCGAAGCGUGGCGGCACCUGCCGCCGGUGGUAAAAAAGAUCGGAAGAGCACACGUCU [U7A U8A G9A U10G U11A C12A C13A]	1.02
GGGUCGAAAGAAUAUAAUCGCGUGGAUAUGGCACGCAAGUUUCUACCGGGCACCGUAAAUGUCCGACUGGAGCCGUUCGGGCGGCUAUAAACAGACCUCAGGCCCGAAGCGUGGCGGCACCUGCCGCCGGUGGUAAAAAAGAUCGGAAGAGCACACGUCU [U7A U8A G9A U10G U11A C12A C13U]	1.2
GGGUCGAAAGUCCAUAAUCGCGUGGAUAUGGCACGCAAGUUUCUACCGGGCACCGUAAAUGUCCGACUGGAGCCGUUCGGGCGGCUAUAAACAGACCUCAGGCCCGAAGCGUGGCGGCACCUGCCGCCGGUGGUAAAAAAGAUCGGAAGAGCACACGUCU [U7A U8A G9A U10G]	1.31
GGGUCGAAAGUCGAUAAUCGCGUGGAUAUGGCACGCAAGUUUCUACCGGGCACCGUAAAUGUCCGACUGGAGCCGUUCGGGCGGCUAUAAACAGACCUCAGGCCCGAAGCGUGGCGGCACCUGCCGCCGGUGGUAAAAAAGAUCGGAAGAGCACACGUCU [U7A U8A G9A U10G C13G]	1.46
GGGUCGAAAGUCUAUAAUCGCGUGGAUAUGGCACGCAAGUUUCUACCGGGCACCGUAAAUGUCCGACUGGAGCCGUUCGGGCGGCUAUAAACAGACCUCAGGCCCGAAGCGUGGCGGCACCUGCCGCCGGUGGUAAAAAAGAUCGGAAGAGCACACGUCU [U7A U8A G9A U10G C13U]	1.34
GGGUCGAAAGUCAAUAAUCGCGUGGAUAUGGCACGCAAGUUUCUACCGGGCACCGUAAAUGUCCGACUGGAGCCGUUCGGGCGGCUAUAAACAGACCUCAGGCCCGAAGCGUGGCGGCACCUGCCGCCGGUGGUAAAAAAGAUCGGAAGAGCACACGUCU [U7A U8A G9A U10G C13A]	1.6
GGGUCGAAACGCUAUAAUCGCGUGGAUAUGGCACGCAAGUUUCUACCGGGCACCGUAAAUGUCCGACUGGAGCCGUUCGGGCGGCUAUAAACAGACCUCAGGCCCGAAGCGUGGCGGCACCUGCCGCCGGUGGUAAAAAAGAUCGGAAGAGCACACGUCU [U7A U8A G9A U10C U11G C13U]	1.09
GGGUCGAAAGACGAUAAUCGCGUGGAUAUGGCACGCAAGUUUCUACCGGGCACCGUAAAUGUCCGACUGGAGCCGUUCGGGCGGCUAUAAACAGACCUCAGGCCCGAAGCGUGGCGGCACCUGCCGCCGGUGGUAAAAAAGAUCGGAAGAGCACACGUCU [U7A U8A G9A U10G U11A C13G]	1.03
GGGUCGAAAGACAAUAAUCGCGUGGAUAUGGCACGCAAGUUUCUACCGGGCACCGUAAAUGUCCGACUGGAGCCGUUCGGGCGGCUAUAAACAGACCUCAGGCCCGAAGCGUGGCGGCACCUGCCGCCGGUGGUAAAAAAGAUCGGAAGAGCACACGUCU [U7A U8A G9A U10G U11A C13A]	1.01
GGGUCGAAAGACUAUAAUCGCGUGGAUAUGGCACGCAAGUUUCUACCGGGCACCGUAAAUGUCCGACUGGAGCCGUUCGGGCGGCUAUAAACAGACCUCAGGCCCGAAGCGUGGCGGCACCUGCCGCCGGUGGUAAAAAAGAUCGGAAGAGCACACGUCU [U7A U8A G9A U10G U11A C13U]	0.974
GGGUCGAAAGAGGAUAAUCGCGUGGAUAUGGCACGCAAGUUUCUACCGGGCACCGUAAAUGUCCGACUGGAGCCGUUCGGGCGGCUAUAAACAGACCUCAGGCCCGAAGCGUGGCGGCACCUGCCGCCGGUGGUAAAAAAGAUCGGAAGAGCACACGUCU [U7A U8A G9A U10G U11A C12G C13G]	1.15
GGGUCGAAAGAGAAUAAUCGCGUGGAUAUGGCACGCAAGUUUCUACCGGGCACCGUAAAUGUCCGACUGGAGCCGUUCGGGCGGCUAUAAACAGACCUCAGGCCCGAAGCGUGGCGGCACCUGCCGCCGGUGGUAAAAAAGAUCGGAAGAGCACACGUCU [U7A U8A G9A U10G U11A C12G C13A]	1.08
GGGUCGAAAGAGUAUAAUCGCGUGGAUAUGGCACGCAAGUUUCUACCGGGCACCGUAAAUGUCCGACUGGAGCCGUUCGGGCGGCUAUAAACAGACCUCAGGCCCGAAGCGUGGCGGCACCUGCCGCCGGUGGUAAAAAAGAUCGGAAGAGCACACGUCU [U7A U8A G9A U10G U11A C12G C13U]	1.33
GGGUCGAAAGUGGAUAAUCGCGUGGAUAUGGCACGCAAGUUUCUACCGGGCACCGUAAAUGUCCGACUGGAGCCGUUCGGGCGGCUAUAAACAGACCUCAGGCCCGAAGCGUGGCGGCACCUGCCGCCGGUGGUAAAAAAGAUCGGAAGAGCACACGUCU [U7A U8A G9A U10G C12G C13G]	1.11

Variant	aptazyme ON/OFF ratio
GGGUCGAAAGUGUAUAAUCGCGUGGAUAUGGCACGCAAGUUUCUACCGGGCACCGUAAAUGUCCGACUGGAGCCGUUCGGGCGGCUAUAAACAGACCUCAGGCCCGAAGCGUGGCGGCACCUGCCGCCGGUGGUAAAAAAGAUCGGAAGAGCACACGUCU [U7A U8A G9A U10G C12G C13U]	1.31
GGGUCGAAAGUGAAUAAUCGCGUGGAUAUGGCACGCAAGUUUCUACCGGGCACCGUAAAUGUCCGACUGGAGCCGUUCGGGCGGCUAUAAACAGACCUCAGGCCCGAAGCGUGGCGGCACCUGCCGCCGGUGGUAAAAAAGAUCGGAAGAGCACACGUCU [U7A U8A G9A U10G C12G C13A]	1.06
GGGUCGAAAGAUCAUAAUCGCGUGGAUAUGGCACGCAAGUUUCUACCGGGCACCGUAAAUGUCCGACUGGAGCCGUUCGGGCGGCUAUAAACAGACCUCAGGCCCGAAGCGUGGCGGCACCUGCCGCCGGUGGUAAAAAAGAUCGGAAGAGCACACGUCU [U7A U8A G9A U10G U11A C12U]	1.03
GGGUCGAAAGAACAUAAUCGCGUGGAUAUGGCACGCAAGUUUCUACCGGGCACCGUAAAUGUCCGACUGGAGCCGUUCGGGCGGCUAUAAACAGACCUCAGGCCCGAAGCGUGGCGGCACCUGCCGCCGGUGGUAAAAAAGAUCGGAAGAGCACACGUCU [U7A U8A G9A U10G U11A C12A]	1.15
GGGUCGAAAGAGCAUAAUCGCGUGGAUAUGGCACGCAAGUUUCUACCGGGCACCGUAAAUGUCCGACUGGAGCCGUUCGGGCGGCUAUAAACAGACCUCAGGCCCGAAGCGUGGCGGCACCUGCCGCCGGUGGUAAAAAAGAUCGGAAGAGCACACGUCU [U7A U8A G9A U10G U11A C12G]	1.13
GGGUCGAAAGCAAAUAAUCGCGUGGAUAUGGCACGCAAGUUUCUACCGGGCACCGUAAAUGUCCGACUGGAGCCGUUCGGGCGGCUAUAAACAGACCUCAGGCCCGAAGCGUGGCGGCACCUGCCGCCGGUGGUAAAAAAGAUCGGAAGAGCACACGUCU [U7A U8A G9A U10G U11C C12A C13A]	1.17
GGGUCGAAAGCACAUAAUCGCGUGGAUAUGGCACGCAAGUUUCUACCGGGCACCGUAAAUGUCCGACUGGAGCCGUUCGGGCGGCUAUAAACAGACCUCAGGCCCGAAGCGUGGCGGCACCUGCCGCCGGUGGUAAAAAAGAUCGGAAGAGCACACGUCU [U7A U8A G9A U10G U11C C12A]	1.26
GGGUCGAAAGACCAUAAUCGCGUGGAUAUGGCACGCAAGUUUCUACCGGGCACCGUAAAUGUCCGACUGGAGCCGUUCGGGCGGCUAUAAACAGACCUCAGGCCCGAAGCGUGGCGGCACCUGCCGCCGGUGGUAAAAAAGAUCGGAAGAGCACACGUCU [U7A U8A G9A U10G U11A]	1.02
GGGUCGAAAGCCCAUAAUCGCGUGGAUAUGGCACGCAAGUUUCUACCGGGCACCGUAAAUGUCCGACUGGAGCCGUUCGGGCGGCUAUAAACAGACCUCAGGCCCGAAGCGUGGCGGCACCUGCCGCCGGUGGUAAAAAAGAUCGGAAGAGCACACGUCU [U7A U8A G9A U10G U11C]	1.04
GGGUCGAAAGAUUAUAAUCGCGUGGAUAUGGCACGCAAGUUUCUACCGGGCACCGUAAAUGUCCGACUGGAGCCGUUCGGGCGGCUAUAAACAGACCUCAGGCCCGAAGCGUGGCGGCACCUGCCGCCGGUGGUAAAAAAGAUCGGAAGAGCACACGUCU [U7A U8A G9A U10G U11A C12U C13U]	1.1
GGGUCGAAAGAUAAUAAUCGCGUGGAUAUGGCACGCAAGUUUCUACCGGGCACCGUAAAUGUCCGACUGGAGCCGUUCGGGCGGCUAUAAACAGACCUCAGGCCCGAAGCGUGGCGGCACCUGCCGCCGGUGGUAAAAAAGAUCGGAAGAGCACACGUCU [U7A U8A G9A U10G U11A C12U C13A]	1.13
GGGUCGAAAGAUGAUAAUCGCGUGGAUAUGGCACGCAAGUUUCUACCGGGCACCGUAAAUGUCCGACUGGAGCCGUUCGGGCGGCUAUAAACAGACCUCAGGCCCGAAGCGUGGCGGCACCUGCCGCCGGUGGUAAAAAAGAUCGGAAGAGCACACGUCU [U7A U8A G9A U10G U11A C12U C13G]	1.16
GGGUCGAAAGUUUAUAAUCGCGUGGAUAUGGCACGCAAGUUUCUACCGGGCACCGUAAAUGUCCGACUGGAGCCGUUCGGGCGGCUAUAAACAGACCUCAGGCCCGAAGCGUGGCGGCACCUGCCGCCGGUGGUAAAAAAGAUCGGAAGAGCACACGUCU [U7A U8A G9A U10G C12U C13U]	0.929
GGGUCGAAAGUUGAUAAUCGCGUGGAUAUGGCACGCAAGUUUCUACCGGGCACCGUAAAUGUCCGACUGGAGCCGUUCGGGCGGCUAUAAACAGACCUCAGGCCCGAAGCGUGGCGGCACCUGCCGCCGGUGGUAAAAAAGAUCGGAAGAGCACACGUCU [U7A U8A G9A U10G C12U C13G]	1.17
GGGUCGAAAGUUAAUAAUCGCGUGGAUAUGGCACGCAAGUUUCUACCGGGCACCGUAAAUGUCCGACUGGAGCCGUUCGGGCGGCUAUAAACAGACCUCAGGCCCGAAGCGUGGCGGCACCUGCCGCCGGUGGUAAAAAAGAUCGGAAGAGCACACGUCU [U7A U8A G9A U10G C12U C13A]	1.05
GGGUCGAAAGUUCAUAAUCGCGUGGAUAUGGCACGCAAGUUUCUACCGGGCACCGUAAAUGUCCGACUGGAGCCGUUCGGGCGGCUAUAAACAGACCUCAGGCCCGAAGCGUGGCGGCACCUGCCGCCGGUGGUAAAAAAGAUCGGAAGAGCACACGUCU [U7A U8A G9A U10G C12U]	1.14
GGGUCGAAAGUACAUAAUCGCGUGGAUAUGGCACGCAAGUUUCUACCGGGCACCGUAAAUGUCCGACUGGAGCCGUUCGGGCGGCUAUAAACAGACCUCAGGCCCGAAGCGUGGCGGCACCUGCCGCCGGUGGUAAAAAAGAUCGGAAGAGCACACGUCU [U7A U8A G9A U10G C12A]	1.18
GGGUCGAAAGUGCAUAAUCGCGUGGAUAUGGCACGCAAGUUUCUACCGGGCACCGUAAAUGUCCGACUGGAGCCGUUCGGGCGGCUAUAAACAGACCUCAGGCCCGAAGCGUGGCGGCACCUGCCGCCGGUGGUAAAAAAGAUCGGAAGAGCACACGUCU [U7A U8A G9A U10G C12G]	1.32
